Test results taken from patent US20230303711A1.

Biological target: Fc-tagged human CD47-ECD protein (CD47-Fc) (human)
Test: ELISA on coated human CD47-Fc; row printed as Affinity (µg/mL)

Chain of Fc-tagged human CD47-ECD protein (CD47-Fc) (human) (chain, as listed by the source limits assumed): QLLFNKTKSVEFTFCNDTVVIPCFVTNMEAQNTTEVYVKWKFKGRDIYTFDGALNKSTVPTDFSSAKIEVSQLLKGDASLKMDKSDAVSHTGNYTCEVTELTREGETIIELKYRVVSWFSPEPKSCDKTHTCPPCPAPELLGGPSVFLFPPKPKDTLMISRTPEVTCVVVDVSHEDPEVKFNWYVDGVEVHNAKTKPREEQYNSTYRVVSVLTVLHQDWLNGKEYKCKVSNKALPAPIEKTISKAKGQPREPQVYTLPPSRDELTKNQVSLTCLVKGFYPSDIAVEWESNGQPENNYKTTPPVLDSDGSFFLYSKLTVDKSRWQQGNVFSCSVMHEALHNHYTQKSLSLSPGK

EC50: 0.088 µg/mL
B1: Antibody 17 (antibody, human IgG1, kappa, V domains shown)
VH: QVQLQESGPGLVKPSETLSLTCTVSGGSLDNYYWSWIRQPPGKGLEWIGYIYYSGNTNYNPSLKSRVTISVDTSKNQFSLRLRSVTAADTAVYYCARGGRFLERYWGQGTLVTVSS
VL: DIQMTQSPSSVSASVGDRVTISCRANQAIGTWLAWYQQKPGKAPKLLIYAASTLQSGVPSRFSGSGSGTEFTLTISSLQAEDVAVYYCQQYYTTPLTFGGGTKLEIKR
